From article PMC7500927

How the values were obtained:
[1] = target: T1, TrxA-His6-TbRAP1(639-761) (Trypanosoma brucei, UniProt C1JEX5 639-761); test: competition
T1 sequence: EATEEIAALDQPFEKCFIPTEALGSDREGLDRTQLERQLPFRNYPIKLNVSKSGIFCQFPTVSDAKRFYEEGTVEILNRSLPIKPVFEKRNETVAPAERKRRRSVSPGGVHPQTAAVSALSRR

[2] = target: T2, TbRAP1(639-761) 5A, tag removed (Trypanosoma brucei, UniProt C1JEX5 639-761, R737A;K738A;R739A;R740A;R741A); test: NMR HSQC
T2 sequence: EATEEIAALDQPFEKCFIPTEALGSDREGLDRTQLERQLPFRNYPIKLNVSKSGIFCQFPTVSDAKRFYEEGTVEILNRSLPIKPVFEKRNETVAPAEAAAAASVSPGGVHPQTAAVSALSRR

[3] = target: T3, TbRAP1(639-761), tag removed (Trypanosoma brucei, UniProt C1JEX5 639-761); test: NMR HSQC
T3 sequence: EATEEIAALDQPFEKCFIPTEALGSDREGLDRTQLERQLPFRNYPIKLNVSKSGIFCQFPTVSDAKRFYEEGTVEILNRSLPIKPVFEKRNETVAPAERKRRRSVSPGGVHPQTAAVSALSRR

[4] = target: T1, TrxA-His6-TbRAP1(639-761); test: EMSA
[5] = target: T4, TrxA-His6-TbRAP1(639-733) (Trypanosoma brucei, UniProt C1JEX5 639-733); test: EMSA
T4 sequence: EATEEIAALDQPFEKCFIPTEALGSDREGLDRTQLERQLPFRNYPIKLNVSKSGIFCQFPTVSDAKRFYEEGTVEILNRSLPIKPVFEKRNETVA

[6] = target: T5, TrxA-His6-TbRAP1(639-761) 5A (Trypanosoma brucei, UniProt C1JEX5 639-761, R737A;K738A;R739A;R740A;R741A); test: EMSA
T5 sequence: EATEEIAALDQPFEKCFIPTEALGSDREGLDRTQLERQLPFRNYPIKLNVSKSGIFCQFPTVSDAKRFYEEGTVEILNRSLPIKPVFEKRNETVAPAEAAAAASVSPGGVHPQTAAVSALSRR

[7] = target: T1, TrxA-His6-TbRAP1(639-761); test: EMSA; remark: listed apart in the source
[8] = target: T6, TrxA-His6-TbRAP1(639-761) 2SA (Trypanosoma brucei, UniProt C1JEX5 639-761, S742A;S744A); test: EMSA
T6 sequence: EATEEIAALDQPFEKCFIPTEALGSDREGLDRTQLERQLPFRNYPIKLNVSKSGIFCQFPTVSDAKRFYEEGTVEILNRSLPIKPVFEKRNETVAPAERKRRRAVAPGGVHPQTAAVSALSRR

Binder | Kd [4] [µM] | binding result [5] | binding result [6] | also measured
dsDNA 200 bp random (dsDNA) DNA 1: CGCGCGTAATACGACTCACTATAGGGCGAATTGGGTACCGGGCCCCCCCTCGAGGTCGACGGTATCGATAAGCTTGATATCGAATTCCAAAGAAGCCATGCGCCGTGCAGAGCAGGAAAAAGCCACACGGGAACTCCTCCTGCAACAAACTTCAGCACCACATGCATCATCAGTTACATCCGGATCCACTAGTTCTAG DNA 2: CTAGAACTAGTGGATCCGGATGTAACTGATGATGCATGTGGTGCTGAAGTTTGTTGCAGGAGGAGTTCCCGTGTGGCTTTTTCCTGCTCTGCACGGCGCATGGCTTCTTTGGAATTCGATATCAAGCTTATCGATACCGTCGACCTCGAGGGGGGGCCCGGTACCCAATTCGCCCTATAGTGAGTCGTATTACGCGCG |  |  |  | binding result [1]: binds
random dsDNA 18 bp (NMR) (dsDNA) DNA 1: TGTTGAGGAGGTGGTGAT DNA 2: ATCACCACCTCCTCAACA |  |  |  | binding result [2]: no binding; binding result [3]: binds
dsDNA 100 bp random (dsDNA) DNA 1: GAATTCCAAAGAAGCCATGCGCCGTGCAGAGCAGGAAAAAGCCACACGGGAACTCCTCCTGCAACAAACTTCAGCACCACATGCATCATCAGTTACATCCGGGATCC DNA 2: GGATCCCGGATGTAACTGATGATGCATGTGGTGCTGAAGTTTGTTGCAGGAGGAGTTCCCGTGTGGCTTTTTCCTGCTCTGCACGGCGCATGGCTTCTTTGGAATTC | 21.5 | no binding | no binding | 
dsDNA 150 bp random (dsDNA) DNA 1: GTACCGGGCCCCCCCTCGAGGTCGACGGTATCGATAAGCTTGATATCGAATTCAATTCCAAAGAAGCCATGCGCCGTGCAGAGCAGGAAAAAGCCACACGGGAACTCCTCCTGCAACAAACTTCAGCACCACATGCATCATCAGTTACATCCGGGATC DNA 2: GATCCCGGATGTAACTGATGATGCATGTGGTGCTGAAGTTTGTTGCAGGAGGAGTTCCCGTGTGGCTTTTTCCTGCTCTGCACGGCGCATGGCTTCTTTGGAATTGAATTCGATATCAAGCTTATCGATACCGTCGACCTCGAGGGGGGGCCCGGTAC |  |  |  | binding result [7]: binds
ssDNA 100 nt random (ssDNA) DNA: AATTCCAAAGAAGCCATGCGCCGTGCAGAGCAGGAAAAAGCCACACGGGAACTCCTCCTGCAACAAACTTCAGCACCACATGCATCATCAGTTACATCCG | 0.31 | no binding | no binding | binding result [8]: binds
dsDNA 80 bp random (dsDNA) DNA 1: CGTGCAGAGCAGGAAAAAGCCACACGGGAACTCCTCCTGCAACAAACTTCAGCACCACATGCATCATCAGTTACATCCGG DNA 2: CCGGATGTAACTGATGATGCATGTGGTGCTGAAGTTTGTTGCAGGAGGAGTTCCCGTGTGGCTTTTTCCTGCTCTGCACG |  |  |  | binding result [4]: binds
